Results from US20210347900A1.

Columns and labels:
[1] = target: human LOX1 on cells (human LOX1 transfected CHO TREX cells) (human) (UniProt P78380); assay: cell-based or functional assay
[2] = target: human LOX1 on cells (human LOX1 transfected CHO TREX cells) (human) (UniProt P78380); assay: competition with DyLight 649 oxLDL on human LOX1 CHO TREX cells, FMAT
[3] = target: human LOX1 on cells (human LOX1 transfected CHO TREX cells) (human) (UniProt P78380); assay: competition with DyLight 649 AGE-BSA on human LOX1 CHO TREX cells, FMAT
[4] = target: recombinant human LOX1 (R&D Systems) (human) (UniProt P78380); assay: competition with biotin CRP on plate-bound recombinant human LOX1, DELFIA

IC50 of inhibition of Cypher 5E oxLDL internalization in hLOX1 CHO TREX cells (row label not given; assay assigned by block order of Table 5) [1]: 2.85 nM | IC50 of inhibition of oxLDL-dependent ROS generation in hLOX1 CHO TREX cells (row label not given; assay assigned by block order of Table 5) [1]: 10.1 nM | IC50 (read off the curve) [2]: 3 nM | IC50 (read off the curve) [3]: 2 nM | IC50 (read off the curve) [4]: 10 nM
Substance: 23C11, commercially available mouse anti-LOX-1 antibody
